Measured values as given in patent publication US8252583B2, “Method for inducing differentiation into cardiomyocytes using G-CSF” (Keiichi Fukuda, priority 2007, dated 2012).

How the values were obtained:
[1] = system: cardiomyocyte markers; test: Expression of cardiomyocyte markers in ES cell-derived EBs (RT-PCR, immunostaining); format: cell-based, mouse
Text: Next, EBs at day 9 were used and analyzed for the expression of various cardiomyocyte-specific genes by RT-PCR and immunostaining. The cardiomyocyte markers used in RT-PCR were Tbx-5, MEF-2c (muscle enhancement factor-2c), Nkx2.5, GATA-4, βMHC (β myosin heavy chain), MLC-2v (myosin light chain-2v), αMHC (α-myosin heavy chain), BNP (brain natriuretic peptide), ANP (atrial natriuretic peptide) and GAPDH (glyceraldehyde-3-phosphate dehydrogenase). The cardiomyocyte markers used in immunostaining were α-actinin, actin, troponin 1-C, MF20 and ANP. […] Further, to study the optimum concentration of G-CSF, G-CSF was added at various concentrations (0.25, 0.75, 2.5, 7.5, 25, 75 ng/ml) to EBs at day 6, followed by RT-PCR to analyze the expression of each cardiomyocyte marker. It should be noted that EBs prepared at two cell densities, H ([…]) and L (5×10^4 cell/ml), were used in this test. […] To confirm a possibility that the promoting effect of G-CSF treatment to induce myocardial differentiation from ES cells would be mediated by the endogenous G-CSF signaling pathway, anti-G-CSF antibody (R&D systems) was added to medium simultaneously with G-CSF treatment and studied for its effect. EBs at day 6 were treated with G-CSF (7.5 ng/mL) in the presence of anti-G-CSF antibody at various concentrations (0, 1, 3, 9 ng/ml) to study the effect of anti-G-CSF antibody using various cardiomyocyte markers. […] To test the proliferation-promoting effect of G-CSF on ES cell-derived cardiomyocytes, EBs at day 6 were used to prepare G-CSF (7.5 ng/mL)-treated and untreated groups and a G-CSF+nocodazole (0.2 μg/mL)-treated group. […] These three groups were tested for various cardiomyocyte markers by RT-PCR.

[2] = system: human ES cells; settings: human ES cells treated with 5-azacytidine; rises from 15%; cited from earlier work
[3] = system: G-CSFR expression; test: G-CSFR expression in EBs derived from ES cells treated with Noggin (RT-PCR, immunostaining); format: cell-based, mouse
Experimental: (§1) In the experiments described below, EB3 cells (kindly provided by Dr. Hitoshi Niwa of Riken, Japan) and R1 cells (kindly provided by Dr. Andrew Nagy of Mount Sinai Hospital, Canada) were used as ES cells. These ES cells were maintained on gelatin-coated plates in Glasgow Minimum Essential Medium (GMEM; Sigma) containing 10% fetal bovine serum, 2 mM L-glutamine, 0.1 mM nonessential amino acid solution, 1 mM sodium pyruvate, 0.1 mM 2-mercaptoethanol and 2000 U/mL leukemia inhibitory factor (LIF) (ESGRO; Chemicon).
Suspension culture was performed as follows to form EBs from ES cells. ES cells were cultured for 3 days on gelatin-coated plates in α-MEM medium containing 10% fetal bovine serum, 2 mM L-glutamine, 0.1 mM nonessential amino acid solution, 1 mM sodium pyruvate, 0.1 mM 2-mercaptoethanol, 2000 U/mL leukemia inhibitory factor and 0.15 μg/ml Noggin (Noggin-Fc, R&D). The ES cells were then dispersed into single cells by treatment with a trypsin solution, and further cultured on uncoated Petri dishes using a three-dimensional culture system in the same differentiation medium as used above (except being free from LIF) to form spheroids, from which EBs (embryoid bodies) were induced. […]

[4] = system: cardiomyocyte markers; test: Cardiomyocyte marker expression in CMES cells (RT-PCR, immunostaining); format: cell-based, common marmoset; settings: for expression of cardiomyocyte markers (RT-PCR, FIG. 21b): CMES cells
Experimental: (§2) To test the effect of G-CSF on primate cardiogenesis, common marmoset ES (CMES) cells (#20) (Sasaki et al., Stem Cells 23, 1304-1313 (2005)) were used. CMES cells were maintained on a layer of mitotically inactivated mouse embryonic fibroblasts (MEFs) in Knockout DMEM (GIBCO) medium supplemented with 20% Knockout Serum Replacement (KSR; GIBCO), 1 mM L-glutamine (GIBCO), 0.1 mM MEM nonessential amino acids (GIBCO), 0.1 mM β-mercaptoethanol (2-ME; Sigma), 10 ng/ml fibroblast growth factor (bFGF; Invitrogen) and 10 ng/ml human leukemia inhibitory factor (hLIF; Alomone labs). CMES cells were passaged every 5 days to maintain their undifferentiated state.
(§3) Undifferentiated CMES cells were removed from the MEF feeder layer, dissociated into small colonies with a dissociation solution for human and monkey ES cells (ReproCELL. JAPAN), and then cultured to form EBs in suspension culture using HydroCell culture plates (CellSeed, JAPAN) in medium free from bFGF and hLIF.

[5] = system: fetal hearts; test: Hematoxylin-eosin staining of fetal heart sections after G-CSF administration; format: in vivo, mouse; settings: G-CSF 100 ng/kg into uteri at 9.0 days of pregnancy; fetal hearts at 12.5 days
Experimental: (§4) At 9.0 days of pregnancy, mice were laparotomized and G-CSF (100 ng/kg) or PBS (phosphate-buffered physiological saline; serving as a control) was directly administered into their uteri. At 9.5 days of pregnancy, the mice were then administered with BrdU (bromodeoxyuridine) by the intraperitoneal route. BrdU is incorporated during DNA synthesis and allows proliferation assessment by immunostaining. At 12.5 days of pregnancy, fetuses were collected to prepare heart sections, which were then analyzed in the same manner as shown for immunostaining in Example 1(2).

[6] = system: ES cells; test: Induction test of cardiomyocyte differentiation: autonomously beating EBs / total EBs; format: cell-based, mouse
Experimental: as §1
Namely, on gelatin-coated dishes, ES cells were maintained in an undifferentiated state in the presence of LIF, and suspension culture was started at day 0 in the absence of LIF to initiate differentiation of the ES cells, whereby EBs which had differentiated into cardiomyocytes were obtained at day 9. At days 5, 6, 7 and 8, G-CSF (2.5 ng/ml) was added and studied for its effect on EB formation. This effect was calculated by dividing the number of autonomously beating EBs by the total number of EBs.
Based on the above results, the optimum concentration of G-CSF was determined. The optimum concentration was studied by comparing the values calculated by dividing the number of autonomously beating EBs by the total number of EBs.

[7] = system: common marmoset ES (CMES) cells; test: Spontaneous beating of common marmoset ES cell-derived EBs; format: cell-based; settings: G-CSF 2.5 ng/mL added at 4, 6 or 9 days after EB formation
Experimental: as §2, §3
At 4, 6 and 9 days after EB formation, G-CSF (2.5 ng/mL) was added to observe spontaneous beating. The best result was obtained upon addition at 6 days after EB formation, and the difference between G-CSF-treated and untreated groups became evident at 14 days after EB formation.

[8] = system: fetal myocardial proliferation; test: In vivo effect of G-CSF on cardiogenesis: Phospho-Histon H3 immunostaining of fetal heart sections; design: species or system mouse
Experimental: G-CSF (2 ng) was directly administered into the uteri of pregnant mice at 9.0 days of pregnancy. At 13.5 days of pregnancy, fetuses were collected to prepare heart sections, which were then immunostained with Phospho-Histon H3. Phospho-Histon H3 is a dye that is specifically stained during the cell proliferation process.
Next, the labeling index was calculated by the following equation. Labeling index=Phospho-Histon H3 positive nuclei/total nuclei×100(%)

[9] = system: ES cell-derived cardiomyocytes; test: BrdU incorporation in ES cell-derived EBs (double immunostaining anti-BrdU / anti-mef2c); format: cell-based, mouse; settings: EBs at day 6, G-CSF 2.5 ng/mL, BrdU for 18 hours; vs untreated
Experimental: In addition, EBs at day 6 were used to prepare G-CSF (2.5 ng/mL)-treated and untreated groups, which were then incubated with BrdU for 18 hours.

[10] = system: fetal myocardial proliferation; test: In vivo effect of G-CSF on cardiogenesis: BrdU immunostaining of fetal heart sections; design: species or system mouse
Experimental: as §4
Moreover, for quantification of the myocardial proliferation-promoting effect, the BrdU labeling index was calculated by the following equation. It should be noted that wild-type mice were used in this test, which were administered with BrdU at 10.5 days of pregnancy and analyzed at 12.5 days of pregnancy. BrdU labeling index=BrdU positive nuclei/total nuclei×100(%)

Molecule: COC(=O)Nc1nc2ccc(C(=O)c3cccs3)cc2[nH]1 [Nocodazole, reference compound]
- effect on G-CSF-increased expression of cardiomyocyte markers (RT-PCR, FIG. 19) ([1]; EBs at day 6, G-CSF 7.5 ng/mL + nocodazole 0.2 μg/mL): cancelled the increased expression of the cardiomyocyte markers

Molecule: Nc1ncn([C@@H]2O[C@H](CO)[C@@H](O)[C@H]2O)c(=O)n1 [5-azacytidine]
- percentage of troponin I-positive cells (cardiomyocytes) in EBs [2]: 44%

Molecule: Noggin
- G-CSFR expression in EBs (immunostaining, FIG. 11) ([3]; Noggin(+) group vs Noggin(−) group, EBs at 6 days after EB formation): G-CSFR expression is increased
- start of G-CSFR expression in EBs (RT-PCR, FIG. 10) ([3]; Noggin(+) group, 0.15 μg/ml Noggin for 3 days): 5 days after EB formation

B1: human G-CSF: G-CSF of human origin used on CMES cells (protein, UniProt P09919 31-207, looked up)
Granulocyte …: TPLGPASSLPQSFLLKCLEQVRKIQGDGAALQEKLVSECATYKLCHPEELVLLGHSLGIPWAPLSSCPSQALQLAGCLSQLHSGLFLYQGLLQALEGISPELGPTLDTLQLDVADFATTIWQQMEELGMAPALQPTQGAMPAFASAFQRRAGGVLVASHLQSFLEVSYRVLRHLAQP
- expression of cardiomyocyte markers (RT-PCR, FIG. 21b) [4]: strongly enhance the expression of the cardiomyocyte markers

B2: mouse G-CSF: G-CSF of mouse origin used on CMES cells (protein, UniProt P09920 31-208, looked up)
Granulocyte …: VPLVTVSALPPSLPLPRSFLLKSLEQVRKIQASGSVLLEQLCATYKLCHPEELVLLGHSLGIPKASLSGCSSQALQQTQCLSQLHSGLCLYQGLLQALSGISPALAPTLDLLQLDVANFATTIWQQMENLGVAPTVQPTQSAMPAFTSAFQRRAGGVLAISYLQGFLETARLALHHLA
- expression of cardiomyocyte markers (RT-PCR, FIG. 21b) [4]: strongly enhance the expression of the cardiomyocyte markers

B3: G-CSF: hematopoietic factor, differentiation-inducing factor for granulocyte lineage hematopoietic stem cells; agonist for G-CSF receptor (protein, listed as Homo sapiens)
chain: TPLGPASSLPQSFLLKCLEQVRKIQGDGAALQEKLCATYKLCHPEELVLLGHSLGIPWAPLSSCPSQALQLAGCLSQLHSGLFLYQGLLQALEGISPELGPTLDTLQLDVADFATTIWQQMEELGMAPALQPTQGAMPAFASAFQRRAGGVLVASHLQSFLEVSYRVLRHLAQP
- heart section morphology (hematoxylin-eosin, FIG. 5a) [5]: extended trabecular layer
- effect on EB formation (autonomously beating EBs / total EBs, FIG. 14) ([6]; G-CSF 2.5 ng/ml added at days 5, 6, 7 or 8, result for addition at day 6): greatest effect on EB formation
- optimum timing of G-CSF administration ([6]; G-CSF 2.5 ng/ml, days 5, 6, 7 and 8 compared): 6 days
- optimum concentration of G-CSF (autonomously beating EBs / total EBs, FIG. 17) ([6]; added to EBs at day 6): 0.75 ng/mL
- effect of G-CSF addition on cardiogenesis (spontaneous beating, FIG. 21a) [7]: highest at 6 days after EB formation
- cardiac troponin I- and Nkx2.5-positive areas (immunostaining, FIG. 21c) ([4]; CMES-derived EBs, G-CSF-treated vs untreated): enhanced cardiac troponin I- and Nkx2.5-positive areas
- fetal myocardial proliferation (Phospho-Histon H3 immunostaining, FIG. 7) ([8]; G-CSF 2 ng into uteri at 9.0 days of pregnancy, fetuses collected at 13.5 days): enhance fetal myocardial proliferation
- Phospho-Histon H3 labeling index (FIG. 8) ([8]; embryonic days 8.5 to 10.5): strongly enhance myocardial proliferation
- cell proliferation of cardiomyocytes (BrdU labeling index, FIG. 20) [9]: promote cell proliferation of cardiomyocytes
- expression of cardiomyocyte markers (RT-PCR and immunostaining, FIG. 15) ([1]; EBs at day 9, G-CSF-treated group): all the cardiomyocyte markers showed increased expression levels
- expression of contractile proteins, transcription factors and secretory proteins (RT-PCR, FIG. 16) ([1]; G-CSF 0.25 to 25 ng/ml added to EBs at day 6, cell densities H (2×10^3 cell/ml) and L (5×10^4 cell/ml), vs control group): increased expression levels
- fetal myocardial proliferation (BrdU immunostaining, FIG. 4) ([10]; G-CSF 100 ng/kg into uteri at 9.0 days of pregnancy, BrdU i.p. at 9.5 days, fetuses collected at 12.5 days, vs PBS): promoted fetal myocardial proliferation
- BrdU labeling index (FIG. 6) ([10]; wild-type mice, BrdU at 10.5 days of pregnancy, analyzed at 12.5 days): enhance myocardial proliferation
